For orientation: Km means the substrate concentration at which the rate is half of its maximum.

Data on four molecules can be found in publication PMC7247549, “Biochemical Convergence of Mitochondrial Hsp70 System Specialized in Iron–Sulfur Cluster Biogenesis” (International Journal of Molecular Sciences, 2020).

Series [1] concerns the target Isu1-GST fusion protein (S. cerevisiae) (UniProt Q03020). Description: pull-down; Isu1-GST (30 μM) incubated with increasing Ssq1, 4 mM ADP, PD buffer (40 mM HEPES-KOH pH 7.5, 100 mM KCl, 1 mM DTT, 10 mM MgCl2, 5% glycerol), 15 min at 25 °C, then glutathione resin; SDS-PAGE, Coomassie, densitometry, Michaelis-Menten hyperbolic fit.
Substrate in series [2]: Nc1ncnc2c1ncn2[C@@H]1O[C@H](COP(=O)(O)OP(=O)(O)OP(=O)(O)O)[C@@H](O)[C@H]1O
The experiment in a line: purified protein. To be noted: 1 μM HscA, no exchange factor, no IscU or HscB mentioned, pH 7.5, 150 mM KCl, 20 mM Mg acetate, 23 °C.

Substrate in series [3]: Nc1ncnc2c1ncn2[C@@H]1O[C@H](COP(=O)(O)OP(=O)(O)OP(=O)(O)O)[C@@H](O)[C@H]1O
The experiment in a line: steady-state ATPase, PK/LDH NADH-coupled assay. The format is biochemical, Saccharomyces cerevisiae. The note with it: 2.5 μM Ssq1 with 2.5 μM nucleotide exchange factor Mge1, no Isu1 or Hsc20 mentioned, pH 7.5, 150 mM KCl, 20 mM Mg acetate, 23 °C.

Series [4] has as its target T1, Ssq1 (S. cerevisiae).
T1 sequence (Q05931 whole entry, looked up): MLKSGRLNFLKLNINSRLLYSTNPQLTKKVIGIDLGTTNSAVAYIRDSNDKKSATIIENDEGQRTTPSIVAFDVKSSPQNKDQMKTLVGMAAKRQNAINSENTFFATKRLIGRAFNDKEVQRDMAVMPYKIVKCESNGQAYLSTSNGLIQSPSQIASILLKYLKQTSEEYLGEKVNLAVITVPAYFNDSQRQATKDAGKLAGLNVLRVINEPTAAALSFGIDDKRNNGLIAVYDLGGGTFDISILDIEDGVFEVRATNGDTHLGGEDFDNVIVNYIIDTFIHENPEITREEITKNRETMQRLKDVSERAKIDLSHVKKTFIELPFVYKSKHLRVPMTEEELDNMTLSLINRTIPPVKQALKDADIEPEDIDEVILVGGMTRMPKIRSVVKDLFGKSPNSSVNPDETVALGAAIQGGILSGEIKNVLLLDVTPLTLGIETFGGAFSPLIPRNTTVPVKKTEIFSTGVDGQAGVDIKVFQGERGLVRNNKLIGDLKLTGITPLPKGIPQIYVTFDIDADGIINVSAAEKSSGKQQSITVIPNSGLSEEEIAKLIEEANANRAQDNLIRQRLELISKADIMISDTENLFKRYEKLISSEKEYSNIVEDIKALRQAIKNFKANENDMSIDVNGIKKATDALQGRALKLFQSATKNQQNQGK

Series [5] deals with T1, Ssq1 (S. cerevisiae). To be noted: scale: fold.

Sequence of Isu1-GST fusion protein (S. cerevisiae) (Q03020 28-165): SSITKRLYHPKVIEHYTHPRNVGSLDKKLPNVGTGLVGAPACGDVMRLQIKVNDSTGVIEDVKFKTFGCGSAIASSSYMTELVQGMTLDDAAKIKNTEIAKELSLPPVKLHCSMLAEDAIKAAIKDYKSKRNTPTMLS

Consider Ssq1 (natural protein), for which the Km (with ADP) in series [1] came to 2.18 µM.

B1: HscA (Escherichia coli K-12) (protein)
chain: MALLQISEPGLSAAPHQRRLAAGIDLGTTNSLVATVRSGQAETLADHEGRHLLPSVVHYQQQGHSVGYDARTNAALDTANTISSVKRLMGRSLADIQQRYPHLPYQFQASENGLPMIETAAGLLNPVRVSADILKALAARATEALAGELDGVVITVPAYFDDAQRQGTKDAARLAGLHVLRLLNEPTAAAIAYGLDSGQEGVIAVYDLGGGTFDISILRLSRGVFEVLATGGDSALGGDDFDHLLADYIREQAGIPDRSDNRVQRELLDAAIAAKIALSDADSVTVNVAGWQGEISREQFNELIAPLVKRTLLACRRALKDAGVEADEVLEVVMVGGSTRVPLVRERVGEFFGRPPLTSIDPDKVVAIGAAIQADILVGNKPDSEMLLLDVIPLSLGLETMGGLVEKVIPRNTTIPVARAQDFTTFKDGQTAMSIHVMQGERELVQDCRSLARFALRGIPALPAGGAHIRVTFQVDADGLLSVTAMEKSTGVEASIQVKPSYGLTDSEIASMIKDSMSYAEQDVKARMLAEQKVEAARVLESLHGALAADAALLSAAERQVIDDAAAHLSEVAQGDDVDAIEQAIKNVDKQTQDFAARRMDQSVRRALKGHSVDEV
Turning to B1, the Km in series [2] turned out to be 28 µM.

B2: Ssq1 (Saccharomyces cerevisiae S288C) (protein)
chain: PQLTKKVIGIDLGTTNSAVAYIRDSNDKKSATIIENDEGQRTTPSIVAFDVKSSPQNKDQMKTLVGMAAKRQNAINSENTFFATKRLIGRAFNDKEVQRDMAVMPYKIVKCESNGQAYLSTSNGLIQSPSQIASILLKYLKQTSEEYLGEKVNLAVITVPAYFNDSQRQATKDAGKLAGLNVLRVINEPTAAALSFGIDDKRNNGLIAVYDLGGGTFDISILDIEDGVFEVRATNGDTHLGGEDFDNVIVNYIIDTFIHENPEITREEITKNRETMQRLKDVSERAKIDLSHVKKTFIELPFVYKSKHLRVPMTEEELDNMTLSLINRTIPPVKQALKDADIEPEDIDEVILVGGMTRMPKIRSVVKDLFGKSPNSSVNPDETVALGAAIQGGILSGEIKNVLLLDVTPLTLGIETFGGAFSPLIPRNTTVPVKKTEIFSTGVDGQAGVDIKVFQGERGLVRNNKLIGDLKLTGITPLPKGIPQIYVTFDIDADGIINVSAAEKSSGKQQSITVIPNSGLSEEEIAKLIEEANANRAQDNLIRQRLELISKADIMISDTENLFKRYEKLISSEKEYSNIVEDIKALRQAIKNFKANENDMSIDVNGIKKATDALQGRALKLFQSATKNQQNQGK
Take B2: the Km in series [3] was determined as 25 µM.

B3: Hsc20 (natural protein)
chain: TSTFYELFPKTFPKKLPIWTIDQSRLRKEYRQLQAQHHPDMAQQGSEQSSTLNQAYHTLKDPLRRSQYMLKLLRNIDLTQEQTSNEVTTSDPQLLLKVLDIHDELSQMDDEAGVKLLEKQNKERIQDIEAQLGQCYNDKDYAAAVKLTVELKYWYNLAKAFKDWAPGKQLEMNH
With B3, in series [4], the apparent Km of Hsc20 for stimulation of Ssq1 ATPase activity (radioactive assay, 10 μM Isu1, 0.5 μM Mge1), compared with that of HscB for HscA (fold (affinity, against HscA for HscB)) stood at 8. In addition, the apparent Km of Hsc20 (0.0025-0.25 μM) for stimulating the pull-down of Ssq1 with Isu1-GST in ATP, compared with that of HscB in series [5] was determined as 4.
